21 sequences from a protein production outcome set (Wang et al. 2014) can be followed below.

A short description of the data set: label from the status in PepcDB records.
For “MARVVVDAQAARAIGKGAMIVFKKGVVRVEGDIKPGDIVEVYTRGGKFLGKGFANPNSNIMVRIVTKDKDVEINKDLFKRRIKKANEYRKKVLKYTNVYRMVYGEADYLPGLIVDRFNDIASLQISSAGMERFKLDVAEAIMEVEPGIETVFEKNTGRSRRREGLPEIERVLLGKEKYRTIIQEGRAKFIVDMRGQKTGFFLDQRENRLALEKWVQPGDRVLDVFTYTGGFAIHAAIAGADEVIGIDKSPRAIETAKENAKLNGVEDRMKFIVGSAFEEMEKLQKKGEKFDIVVLDPPAFVQHEKDLKAGLRAYFNVNFAGLNLVKDGGILVTCSCSQHVDLQMFKDMIIAAGAKAGKFLKMLEPYRTQAPDHPILMASKDTEYLKCLFLYVEDMR”, the protein production entry is listed as “not failed”. “MARYLVVAHRTAKSPELAAKLKELLAQDPEARFVLLVPAVPPPGWVYEENEVRRRAEEEAAAAKRALEAQGIPVEEAKAGDISPLLAIEEELLAHPGAYQAIVLSTLPPGPSRWLRLDVHTQAERFGLPVIHVIAQAA”: the protein production entry was “not failed”.

For “MASDSGNQGTLCTLEFAVQMTCQSCVDAVRKSLQGVAGVQDVEVHLEDQMVLVHTTLPSQEVQALLEGTGRQAVLKGMGSGQLQN”, the protein production entry is given as “not failed”. “MASEQEKTADFGFRTVAKDEKEVMVAEVFHSVAAKYDLMNDLMSFGIHRIWKRFTIECSGVRRNQRVLDLAGGTGDLTAKFSRMVGEGGEVILADINASMLKVGREKLRNKGIIDNINYVQANAEALPFPDDFFDCITISFGLRNVTDKNKALRSMYRVLKPGGRLLVLEFSKPVIKQLSTIYDAYSFHILPRIGEAVASDAGSYRYLAESIRMHPDQETLKGMMSDAGFDSVNYFNLTGGIVALHRGFKFLEHHHHHH”: the protein production result is given as “failed”. “MASFYWRIKNEPYQVVECAMRALHFSSRHNKDIALVNLANVLHRAHFPADAAVVVHAALDDSDFFTSYYTLGNIYAMLGEYNHSVLCYDHALQARPGFEQAIKRKHAVLCQQKLEQKLEAQHRSLQRTLNELKEYQKQHDHYLRQQEILEKHKLIQEEQILRNIIHETQMAKEAQLGNHQICRLVNQQHSLHCQWDQPVRYHRGDIFENVDYVQFGEDSSTSSMMSVNFDVQSNQSDINDSVKSSPVAHSILWIWGRDSDAYRDKQHILWPKRADCTESYPRVPVGGELPTYFLPPENKGLRIHELSSDDYSTEEEAQTPDCSITDFRKSHTLSYLVKELEVRMDLKAKMPDDHARKILLSRINNYTIPEEEIGSFLFHAINKPNAPIWLILNEAGLYWRAVGNSTFAIACLQRALNLAPLQYQDVPLVNLANLLIHYGLHLDATKLLLQALAINSSEPLTFLSLGNAYLALKNISGALEAFRQALKLTTKCPECENSLKLIRCMQFYPFLYNITSSVCSGNCHEKTLDNSHDKQKYFDNSQSLDAAEEEPSERGTEEDPVFSVENSGRDSDALRLESTVVEESNGSDEMENSDETKMSEEILALVDEFQQAWPLEGFGGALEMKGRRLDLQGIRVLKKGPRDGVARSSCYGDCRSEDDEATEWITFQVKRVKKPKGDHKKTPGKKVETGQIENGHRYQANLEITGPKVASPGPQGLLDWKTRKVP”: the protein production result is “failed”. Turning to “MASGQFVNKLQEEVICPICLDILQKPVTIDCGHNFCLKCITQIGETSCGFFKCPLCKTSVRKNAIR”, the protein production entry is given as “not failed”. For the sequence “MASGSTQVKYLGIYQKMKQQILDGEYKINEKIPSSPVLAEEFDVSVLTIKKALDLLVRDGYIIRRRGSGTVVQDWRQQEKARMIQTLTGTKAVYGSEVESKIIEFTIVGADEIIAEKLGISVGDFVYKIIRLRIIHSIPTIMEHTWMPISVIPGVEVSVLEESIYSHIQNKLGLQVGTSVVRVKGIRPDDKEKQFMNLTNQDFLMRVEQVAYLTDGRTFEYSYADHLPETFEFETVITAKSYKEA”, the protein production entry is reported as “not failed”. For “MASKMDTETHYSDVWVVIPAFNEAAVIGKVVTDVRSVFDHVVCVDDGSTDGTGDIARRSGAHLVRHPINLGQGAAIQTGIEYARKQPGAQVFATFDGDGQHRVKDVAAMVDRLGAGDVDVVIGTRFGRPVGKASASRPPLMKRIVLQTGARLSRRGRRLGLTDTNNGLRVFNKTVADGLNITMSGMSHATEFIMLIAENHWRVAEEPVEVLYTEYSKSKGQPLLNGVNIIFDGFLRGRMPR”, the protein production result is recorded as “failed”. As to “MASKPEKRVASSVFITLAPPRRDVAVSEEVGQAACEARRARPWEMLPTKTPGAAVGRSPKTWTPSGKTNASLSGVTPQLSNGGCSLPPPSLNEEDLDLPPPPPPPSAYLPLPEEEPPVLPGKSLISDLEQLHLPPPPPPPPPQAPSKGSSVHPPPGHAIPSEEELPPPPEEPVTLPEREVSTDVCGFCHKPVSPRELAVEAMKRQYHAQCFTCRTCRRQLAGQRFYQKDGRPLCEPCYQDTLEKCGKCGEVVQEHVIRALGKAFHPPCFTCVTCARCISDESFALDSQNQVYCVADFYRKFAPVCSICENPIIPRDGKDAFKIECMGRNFHENCYRCEDCSVLLSVEPTDQGCYPLNDHLFCKPCHLKRSAAGCC”, the protein production result is “failed”. On to “MASKSQKKVLKKQNKKKKKDPLAPKRALSAYMFYVKDKRLEIIKEKPELAKDVAQVGKLIGEAWGQLSPAQKAPYEKKAQLDKVRYSKEIEEYRKKNQE”, for which the protein production entry was “failed”. With “MASLEVSRSPRRSRRELEVRSPRQNKYSVLLPTYNERENLPLIVWLLVKSFSESGINYEIIIIDDGSPDGTRDVAEQLEKIYGSDRILLRPREKKLGLGTAYIHGMKHATGNYIIIMDADLSHHPKFIPEFIRKQKEGNFDIVSGTRYKGNGGVYGWDLKRKIISRGANFLTQILLRPGASDLTGSFRLYRKEVLEKLIEKCVSKGYVFQMEMIVRARQLNYTIGEVPISFVDRVYGESKLGGNEIVSFLKGLLTLFATT”, the protein production result was “failed”. Take “MASLRVACVIPTYNGRKDLERLLDSLATQTASFDTLIVDSSSSDGTLELAQARCANVLRIDSKDFNHGGTRQMMVDVHPDYDVYVYMTQDAYVEDIDAIANILLPFADPKVGAVCGRQLPHKNANLLAQHARLFNYPPTSQIKTLADAGTLGIKTPFMSNSFAAYRGEALRAIGGFPRHVILSEDMYVTAKMLIDGWKVAYEGSAVCRHSHNYSLREEFCRYFDIGVFQSREAWIYETFGGIGGEGMRYVKSELKFLGPRRLLWWPMSFVRNALKLLAYKLSKQEKRLPRGLKKKLGMYKRYWDSPYA”: the protein production result was “failed”.

Regarding “MASLVAYDDSDPESEADPARSGDAAGQMSDVSGISRPEVEFASSTGVTKEGAQHTGNSPYEDPGKQRLPLARLWRSDPGSCPSQRLQWPSKEPDSTFPTSEPPGPSLWMNRAPVGHVPLAAACFKPLKPAWDAFTPSHTHSKLESTAGNASSSQRKRGEACVLPYIPKRLRQLQVLNPEATGGRDVEPPGSPAGCAPAPLCVAPTVSEFIQPYLNSQYRETTVPKKVLFHLRGHRGPVNSIQWCPVFSKSHMLLSASMDKTFKVWNAVDSGHCLQTYSVHSEAVRAARWSPCGRRILSGGFDFALHLTDLETGTQVFSGHSDFRVTTLKFHPKDHNVFLCGGFSSEIKAWDMRTGKVVKGYKATIQQTLDILFLQEGSEFLSSTDASTRDSADRTIIAWDFRTAAKISNQIFHERYTCPSLALHPREPVFLAQTNGNYLALFSSVWPYRMSRRRRYEGHKVEGYAVGCECSPCGDLLVTGSADGRVLMFSFRTASRACTLQGHTQACLGTTYHPVLPSVLGTCSWGGDIKIWH”, the protein production result is recorded as “failed”. For the sequence “MASPAAGDVLIVGSGLVGRSWAMLFASGGFRVKLYDIEPRQITGALENIRKEMKSLQQSGSLKGSLSAEEQLSLISSCTNLAEAVEGVVHIQECVPENLDLKRKIFAQLDSIVDDRVVLSSSSSCLLPSKLFTGLAHVKQCIVAHPVNPPYYIPLVELVPHPETSPATVDRTHALMRKIGQSPVRVLKEIDGFVLNRLQYAIISEAWRLVEEGIVSPSDLDLVMSDGLGMRYAFIGPLETMHLNAEGMLSYSDRYSEGMKRVLKSFGSIPEFSGATVEKVNQAMCKKGPADPEHLAARREWRDECLKRELAKLKRQMQPQ”, the protein production entry is on record as “not failed”. For “MASPLYPSVLNNPLSSIVVTRDEFNAFHTIDRTLFSRLVFNLNRDVDQSFLAMCFLLFLEQSSYARDIIAYLVSLPNAFVDAVANEIGVCINLLYNVEFASTFFAADNDDNSMIPLLLRITGGKFTLRLINQQRKNFCAGVTKSWTDVCTRAFSDLCETAHRINREKQLALEREKFIEDMKKLRLSLQQEKSNRLSVQQVKIASPPPPRPHPPVEDETEKALREKETMEVKEKEGVLAADDRTVFLTFSKGYPISEAEVRVYFTRRFGEVIEAVEMQEVEANEQPLFAKMVMKLQCASMMDEIVSARFRNKFTIDGKHVWARKYVRKNPYPASSSTHF”, the protein production result is listed as “failed”.

For “MASREVSITRISPLATFRVALAMSIIGLVAWIICVTVLYFGLNVAGVWQNFNDVIGGVGAEQTITFGLVLSISALLGAIGAITVAVLAPLCAIIYNSIVDLFGGLQIQLQEEVD”, the protein production result is on record as “failed”. The value for “MASSLITSAVIVVVLSLVLGSVEQVSGLRHVPKSPKTTDVKHPDFLVTIEPKPTILIPGVGRFLLPPKCKKPFYPYNPVTGAPLTGGGIPSYNGGQGAGPHTQLPGGDDTLVPNPGFEAPTPTIGAGTGSNGQVPPVPLP” was “failed”. Take “MASSPRPTEQTKQFFQQWQTYQQLVDHNYMAHRQIHQAVGALIQQQFDRPFDFLDLGCGDAQAIAKTLTGSKINSYTGVDLSPNALALAQKNLDPFRQVELRETDFLTYLGEANQTAPASFDLIHVGFSLHHLLPEEKEQFFAHCFSLLRPGGCLVIYDVFRQPEQNRQQYIEAYLAKAESQWTALAPDQLQAIAAHIKECDFPELVATMAEIGQKVGFIPPQVLFTEPRGFHHCFAFAISQSGKALAQDGV”: the protein production entry is given as “failed”. As for “MASTYYELLGVSKYASEADIKKAFKDLAKKYHPDKHPGEAFYEEHFKKINEAYQILSDKQARQNYDFRLQYGQHAQQSRPAQNQQRAYQRPTATYQQPKYRRPKPAASGTSAYQKKLNTYYISIAIGAVVFIFACYWFYSFMNTYSSKKYFNEGLKAESRGNDMQALSFYFSALEINLKNPEVNEKIGDLYSKFATNSSYDLFYYDLELQKNFQDPDFDATSIELLKKTRNVDSLAALYYKRSFENFEMPVDKRRVGLKSIKACLKTGDYKQAADNLYKVSFLPDYKRDDSVLYYRGDVIFQTRFYDQARDNYRKFLALHPTSAEASVKIAVCHYNEHNEDYALAQLAKTIKRFPANGEAYYFLGQIHLRNNDTLKACSNFYKADSLHVLAAKPSLYKYCRN”, the protein production result is listed as “failed”. In the case of “MASWPYCNHKRGLNGYGVFFSIFFGSGAYNAPVRIAVLADIHGNADALRAVLKDAAEQGAERLIVNGDVVNRGPDSVQVMEELLARDDTSFVLGNHDDLLRLWHTRSDKLPQDWYDDPFWGATAWSTEQLHAAGLLDVPGDWPLTARLSVPGLPDVLLAHGTPDDYRRGLSERTDPALVRRIADESGAGVLVGSHIHRQADALVGGVRVLNTGAVGSPADGDPRAQYLLLTATPQGWQTELRRVPYDRSGVLQRFETSGLLDTGLSARIFRDELVTARSLYTPYWEWTETGGCPRDTASWEQFAQDWT” it was “failed”; in that of “MASYVFIRVSKIRKGYFPVLLAIGFAITFAEGFILFLVNFGAIPTNGPTIQLVPQIIMQNPNPLIRFYGTLILLCFLNTIVLSIFYATIAKLLPKFSG”, “failed”.
